Results on 1 protein are retold here after publication PMC5253651, “Human farnesyl pyrophosphate synthase is allosterically inhibited by its own product” (Nature Communications, 2017).

Substrate in the data set: C=C(C)CCO[P@@](=O)(O)OP(=O)(O)O
Description: purified protein, by the assay type. To be noted: other: saturating excess of GPP (∼500-fold over enzyme, 10-fold over IPP), steady-state equation accounting for product inhibition, Kp 6 μM, 30 °C, pH 7.5.

One may read the Km as the concentration of substrate that gives half-maximal velocity.

B1: human FPPS (Homo sapiens) (protein)
chain: MNGDQNSDVYAQEKQDFVQHFSQIVRVLTEDEMGHPEIGDAIARLKEVLEYNAIGGKYNRGLTVVVAFRELVEPRKQDADSLQRAWTVGWCVELLQAFFLVADDIMDSSLTRRGQICWYQKPGVGLDAINDANLLEACIYRLLKLYCREQPYYLNLIELFLQSSYQTEIGQTLDLLTAPQGNVDLVRFTEKRYKSIVKYKTAFYSFYLPIAAAMYMAGIDGEKEHANAKKILLEMGEFFQIQDDYLDLFGDPSVTGKIGTDIQDNKCSWLVVQCLQRATPEQYQILKENYGQKEAEKVARVKALYEELDLPAVFLQYEEDSYSHIMALIEQYAAPLPPAVFLGLARKIYKRRK
With B1, the Km stood at 1.1 µM.
